Results taken from PMC9389230, “Connective tissue growth factor-targeting DNA aptamer suppresses pannus formation as diagnostics and therapeutics for rheumatoid arthritis”.

Legend:
murine CTGF (SPR) = murine CTGF (SPR) (mouse, UniProt P29268 26-348); experiment: SPR; SPR: PBS running buffer, CTGF on CM5 chip, aptamer 9.375-600 nM, 10 ul/min (SA chip with biotinylated aptamer for cytokines and CTGF deletion mutants); dot blot: nitrocellulose, 10% BSA block, 1 uM biotinylated aptamer, room temperature; pH not stated; conditions: protein: recombinant; label: biotin or Cy5 depending on assay
CTGF (CCN2) = CTGF (CCN2) (UniProt P29279 27-349); experiment: as above; conditions: protein: commercial; label: biotin or Cy5 depending on assay
CTGF (CCN2), sequence (P29279 27-349): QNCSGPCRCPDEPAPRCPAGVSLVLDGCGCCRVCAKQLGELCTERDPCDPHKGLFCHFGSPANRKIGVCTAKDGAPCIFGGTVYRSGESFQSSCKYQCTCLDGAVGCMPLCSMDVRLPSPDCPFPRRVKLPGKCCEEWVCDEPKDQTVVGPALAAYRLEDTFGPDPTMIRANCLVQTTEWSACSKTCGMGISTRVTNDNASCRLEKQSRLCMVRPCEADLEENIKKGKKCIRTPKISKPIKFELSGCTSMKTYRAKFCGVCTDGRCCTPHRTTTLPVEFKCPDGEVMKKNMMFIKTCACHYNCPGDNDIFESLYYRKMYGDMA

murine CTGF (SPR), sequence (P29268 26-348): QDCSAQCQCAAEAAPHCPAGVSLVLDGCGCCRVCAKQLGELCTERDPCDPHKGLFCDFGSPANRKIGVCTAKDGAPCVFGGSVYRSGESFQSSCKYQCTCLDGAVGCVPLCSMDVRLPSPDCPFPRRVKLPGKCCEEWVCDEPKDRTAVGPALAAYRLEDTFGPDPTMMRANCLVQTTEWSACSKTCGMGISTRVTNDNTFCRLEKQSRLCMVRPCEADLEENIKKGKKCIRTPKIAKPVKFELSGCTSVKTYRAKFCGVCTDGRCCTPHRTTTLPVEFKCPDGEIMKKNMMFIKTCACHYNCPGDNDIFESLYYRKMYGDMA

In the case of AGGCCGGGAGGGTACCCATTGATGGTGTGATGACTGCCT (ssDNA, 3' PEG (high molecular mass)) [AptW2-1-39-PEG], the binding result (murine CTGF (SPR)) is reported as “binds” and the Kd (CTGF (CCN2)) is reported as 7.86 nM.
